Laboratory results from a protein production outcome set (Wang et al. 2014).

Experiment: label from the status in PepcDB records
In the case of “MLLTREYIDKAFWQKLIAIGLPVSLQSMLFALLGVVDIFMVSLLGESATAAVGVGNRIFFFNLAVVFGLCGAVTVLASQYYGSGNMAGIRRTLAQSWCISILVTLPFIVLYAIFDEEIVSFMSDDPEYVTYARDYLVVTGFSLIATAIVVPIEAVLRSVGQTKLATNVSISAIVVNAVLNSVLIFGLFGFPQWGVFGAAVGTFVSRFFQTAVLIYFFYNRYAHLIPTKFDWAQGRLKQYRQKYFKVSLPMLVHDALWTGGLIVYSIIYGQLGVSELAIISFLSPIEGVLISTFMGFAVAASVLLGNDIGAKHYDRVEKTAWWYVLTSAILATLLFFLVWLSSPLIHHLLVLSPLTDAEMALNVCLVMALGMILRVFNMVGIGGVLKSGADIRYSIFIDTFGQWAIGIPLTYYTGMVLGLPLHFVLMSLLAEEFVKGVLTTYRIQSKRWINNMVEDDQTVTA”, the protein production is reported as “failed”.
In the case of “MLLYVLIISNDKKLIEEARKMAEKANLELRTVKTEDELKKYLEEFRKESQNIKVLILVSNDEELDKAKELAQKMEIDVRTRKVTSPDEAKRWIKEFSEEGGSLEHHHHHH”, the protein production is reported as “not failed”.
For “MLMEIRESVKERIEEIIKEIAPQWEGEIELKETPDPKLGDFGTPIAFKLAKLLKRPPIEIAEKIVEKLKLNLPEGIKDVKAVNGYINVFIDYPHFARILINDILAKGDRFGSSEIGKGKKVIVEHTSVNPTKPLHMGHARNAILGDVMARILRFLGYEVEVQNYIDDLGIQFAQVYWGYLRLKEEFERIMNELRERGLKDNPIDHALGLLYVEVNRRLEDNPELENEIRDIMKKLESGELYGRKLAEEVVRAQMVTTYKLGVKYDLLVWESDIVRRKLFEIALELLSKNENFYIPSDGKYRGAFVMDLRKLFPDMKNPILVLRRSDGTATYTGKDIAYHLWKFGKIDVDLLYKEWDSTTWTTAPDGKSMPNKFGNANIVINVIGAEQKHPQLAIKYALQLLGFEDAAANLYHLAYEHVERPEGKFSGRKGTWVGFTVDEVIQEAVKRARELIEEKNPALSDEEKAEVAEKVGIGAIRYNLIKYSPDKKIIFRWEDVLNFEGESAPYIQYAHARCSSILRKAEEEGIKVDPETLFKNADFTKLSERERELVIMLSKFPRIVEQAGKDVKPHLIAWFANELASLFNKFYMDHPVLKAEEGVREARLLLVMAVEQVLKNALYLMGIEAPERM”, the protein production was “not failed”.
In the case of “MLMEVKALAHAKNDSVAVATDDLKEGEEIQVAFLDNNEKTKITTAEVIPLGHKISLKDIKKGENVIEYGEVIGAATKDIKRGEHVHIHNIKSLRW”, the protein production is reported as “not failed”.
In the case of “MLMPRRMKYRKQQRGRLKGATKGGDYVAFGDYGLVALEPAWITAQQIEAARVAMVRHFRRGGKIFIRIFPDKPYTKKPLEVRMGKGKGNVEGYVAVVKPGRVMFEVAGVTEEQAMEALRIAGHKLPIKTKIVRRDAYDEAQ”, the protein production is reported as “not failed”.
With “MLMSFILLISTSMILISVFSYVLIALIVLGIVLSLISLLSPRVSYVSSVYLIGLTVYLNPGFSLTQSLINTVPILGEINMLSGLLKTPVTSIISSLFSLALLNLGIKGYEIYLSKHADIVKLDSIIFSQHGLPKQANWNIVVNSEVKLLKSNEKLILSNTPEAKYELCPTLVDHKYYVPNKVTGLAFEGEVIRINYSPVDGVPYEKFRNCFTVFEVEGLPPDTSFVIEINGASLKLKDRKFAKLSLEPLYWKVNEIRISREDEEEIYEPDIKEGLTFRGGTVKINFRRKVIRYKTAKIPSIENWDPGIWVGQEVYGYRVIEVIGLGGNGYVMKVEKNGLLYAMKVLSVNKFTNSLEHFDNLLKESENLEKLSKDPRLVSIYGSFVDKNNIQSALAGDYTSYYKYPPAIIMEFMEGGTLFDLISRVDLVQSKYWQYIVKLVIKEIAKALTFLHKRGYVHLDVKPQNIFLKEKINGEPEVVYKILSSTPGIIKLGDLGSAVRVGEKITQATPAYSPPEQIEAVITGKGAQPSMDNYALGVTLYKLLTMKNLDYVNYLDKAFDEYIKGDPSIAMKYINMAKMSMVNFKPKLPHNTLPELANVVQGTLVVDPKRRLTSYDIVKILEG” the protein production was “failed”.
In the case of “MLNADVKETIHYVDENGKELAGTYTKDVHYTRTATVHYDQNGNATVTYGEWKADGSFDKVANPDIDGYFTLDKGVDGKTVTDPQNQADFVENVIYYKTDQNVTPLEHHHHHH”, the protein production is reported as “not failed”.
For “MLNDGVYLAQARGMAGFVHAKLTVKDNKIVGVDLDLTTETPENKPKVEQQLKKEILTRQSADIDAVSGATFTSNGVKEAVQQTLKQAEKLEHHHHHH”, the protein production was “not failed”.
For “MLNDILTGYGIFILEILTILLLILAVVGLIISYRQHNKSKVGELEIKDLSEEFNEQVRLLRDFNLSEEEQKQRTKAEKKAEKQNAKKRKEKLKKGETLEDEKKACVYVLDFCGDISASETTALREEISAILNVAKSEDEVLLRLESPGGIVHNYGFAASQLSRLKQKGIKLTVAVDKVAASGGYMMACVADKIVSAPFAVIGSIGVVAQIPNVHRLLKKHDVDVDVMTAGEFKRTVTVLGENTEKGKQKFQQELEETHKLFKQFVSQNRPCLDIDKIATGEHWFGQQAIALQLVDEISTSDDLILEKMKEKQVLNVKYRLKKSLIKKFGRQAEESAINIIHRYSTKQSRDFMYLEHHHHHH”, the protein production was “failed”.
In the case of “MLNDKMYHGKGLRKGDLRLYHELYNLQVMKWPVNPLDVIIEKIKRREGNGVIADIGCGEARIAREFENVISLDLHPVGKDVIPCDMRRRIPLDDGSVDVAVCCLSMMVEDIAVPTKEINRILRNGGHWYIAEVRSRIPSVGLLERKFESLGFDVEHVDVSNAQFVLFVLQK”, the protein production is reported as “failed”.
In the case of “MLNGDVTLRAWTNIWMFLIYGLAIFLEPIHNNIRHLPILVRGGIYSTLIIISEYITGSFLCFMLGTCPWHYSSGPFTIQGITRLDYFPYWLIAGLLFEKLHDALLKISINVEQSSS”, the protein production is reported as “failed”.
With “MLNKFKKIVGVSVLVGCLGVLQAKNSLFVLPYEQKDALNSLVSGISNARESVKIAIYSFTHRDIARAIKSVASRGIKVQIIYDYESNHHNKQSTIGYLDKYPNTKVCLLKGLKAKNGNYYGIMHQKVAIIDDKIVFLGSANWSKNAFENNYEVLLKTDDTETILKAKSYYQKMLGSCVGF” the protein production was “failed”.
For “MLNLFILLLERVGLIILIAYILMNINHFKTMMNEREKRRSQWQLIIIFGCFSMISNFTGIQIRGDEIINGTVYNHLDPDASLANTRVLTIGVSGLIGGPFVALAVAVISGMYRVYIGGADAYIYLISSIFIALISGYFGYKAMRANRYPTIVKGACIGGTTEIIQMLCILLFSDNTEHAWTLVKLIAIPMISINSIGTAIFLSIILSTIKQEEETRAIQTHDVLQLANQTLPYFRSGLNEQSAKKAAEIILNLMRVSAVAITNRKDILTHVGVASDHHVAQKAIITNLSKRAIQSGTLKEAYSSEEIGCNHPGCPLEAAIVVPLRVKNDVVGTLKLYFTNKYDVNYSDKQLATGLAEIFSSQLELGQAETQSALIRDAEIKSLQAQVNPHFFFNAINTISALIRIDSEKARELLLQLSQFFRSNLQGARNNTISLEKELQQVESYLSLEQARYPDRFNVSFDIDRTCYGALVPPFAIQILVENAIKHAFKNRKYNNEIIVKAHKAQTGLVISVSDNGHGIPYEKLDKIGKTSVHSESGTGSALENLNRRLDGLFGYEASLQIHSDHQGTQVSCTIPYHNLEEEKIESNHCR”, the protein production was “failed”.
With “MLPASNGSVSLPQPKEWENGCRLGFIHMAAKGIVQVISAQVLSGTTLTLGWLGYVPLLIWAVSRVRWVELFTDRRRQHLLFGTVFCLFALWLVRRDFDTGVSYHFIGMTAVTLLLDWPLAVLGGFMAQLGLLALGRQDLAALGVNGLMLIGLPVLITEVCAIVVERAQPRNLFVYIFCSGFFPAALTVLVCVPAALGVLWLDGRFALPEWLSDFVGYLWLMMFPEAFINGMVISALVVFCPEWLETFNRTRYLQAPWKEDER” the protein production was “failed”.
With “MLPAYIRIHDQIKKEIDEGLWKIGDRLPSERDLAERFEVSRMTLRQAITLLVEEGILERRVGSGTYIASSRVQEKMRGTTSFTEIVKSQGKTPSTKLISYRRVHPSEQEIKFLDIKPKSYIIRMERVRYADDIPVVFEVTAIPEKIIKSFKKEAITKHFFKTLTDHGFVIGKSQQTISASNANEMTADYLAISRGHAVLTLAQVSYFENGMPFEYVRSQYVGERFEFYLENK” the protein production was “not failed”.
For “MLPLEPYLTQTSAVPQMSHFMCHSPTHKPQGLLPWAPFHQASVSLYPISPWPSESVCPPTCPGGASCWFPAGNAWDRVELGFLGFGAGGVSIAVPGFPLSCGQGCCAGGWLGHGARFPAKLRAFPQVIRRGWLTINNISLMKGGSKEYWFVLTAESLSWYKDEEEKEKKYMLPLDNLKIRDVEKGFMSNKHVFAIFNTEQRNVYKDLRQIELACDSQEDVDSWKASFLRAGVYPEKDQAENEDGAQENTFSMDPQLERQVETIRNLVDSYVAIINKSIRDLMPKTIMHLMINNTKAFIHHELLAYLYSSADQSSLMEESADQAQRRDDMLRMYHALKEALNIIGDISTSTVSTPVPPPVDDTWLQSASSHSPTPQRRPVSSIHPPGRPPAVRGPTPGPPLIPVPVGAAASFSAPPIPSRPGPQSVFANSDLFPAPPQIPSRPVRIPPGIPPGVPRRPPAAPSRPTIIRPAEPSLLD”, the protein production was “not failed”.
With “MLQQLFASPILSVQTLHPSYEDHASDVFLVQTKDEEVIVRSSKMTEEPNNDFWWGCKNLFGIDPRNVHHLEYIHELLKKHTNLPIPTILQKHVLNGRKYVSVEKLTGSTLQSFVGQSDSILFSLGKGLAEIHSFQAEFIGNPSGTFQVPLEEFKSHILKVSKELVNRFYSDNTSIRNAFSTFESQLSSLPTPKEATLVLIDMDPTQFLSDGTTITGLVDTEAYAVAPRELDFISLEYVFTEKEAHAFKQGYETIMPIPNLVECRHPYRYLYRLLSIQGSVELEKWLSHPSYF” the protein production was “failed”.
With “MLQRTLSSIQIIGGVTQALFILSICLASINPPTEFTMRRTMAMSMRKYSSHSTPRMARIPTTFVVIVLRPTILSGSVGPVITLYIAIKAVPRSTQTPATKTFS” the protein production was “failed”.
For “MLQSHIMAGNCTVKPARMTRAPYARHELKSTNSGCDESPAALERRVAELLLVADFGAVVGSILDPRQVCEVASSWLGETLGWQMLSVCCHDFSTGTMRGGAGRGRHLSKKRQEGATSTVFIAAAQKGLSDAADVRTIPFPDGSGTLSLSRQSLAESQYSDEFFGGVVENLARSLAAARECDRLKNLSMRDHLTGLYNRRVFEAMLEVEARKRTTKPFSLLLIDLDDFKRVNDTYGHGAGDQVLVAVAKMLRLSFRKSDVVSRYGGEEFGVLLPDTSQDSARVVAERFRQNVATLSLPVNKEKIMPTVSVGIASVTLRLGIEVADVIEEADRALYQAKVTGKNRVCSSLLGENS”, the protein production was “failed”.
In the case of “MLQYILAEHPFFVATGALYAAAAGFYAAAWRSTRALVGRAATALLCAALAFNAGLIVERWIEAGRAPFKSLFESLVFFAFTTGVVYLAFERLYRTRVFGALAALLTLALLGYALGKWDAEIVKLPPALQSAWFVPHVVVYFVGYAAVSLAALLAAVQLLAPRVPLLQRLTTLRAGTILTGKALDLEQMTYELIRFGFVLLTVGLLVGSVWAKSAWGDFWVWDPKENWSLVTWLVYGAYLHLRKVRGWRGDRAAWLVLLGFAVVMFTYLGMSMLPTAEESAHVYTG”, the protein production is reported as “failed”.
For “MLRAIYRALWWLVAPLAVLRLVWRSRKERGYREHIGERFGFGPGRALARRIDEATPVVWVHAVSVGETRAAQPLVDALLRARPDVHVLLTHMTPSGRATGEQIFGERVSRCYLPYDLPHAVRRFLRAWRPSLGLVMETEVWPTLIDECRRADVPLVLTNARMSARSFGRAAKFGAAAREVFGGFSRVLAQSPADAERLTALGARNVAVLGNLKFDMTTPPELAARGRAWRAAIGERPVWVAASTRDGEEALVLDAFAALRTPDALLILVPRHPQRFAEVAALVERRGLRHARRTEWAADAAAAAAGGPAAPALPPDVAVLLGDSMGELGAYYAAADVAFIGGSLLPLGGQNLIEACAVGVPVLIGPHVFNFTQATADAVTAGACAQVQDPADLARTLDALFADHARRAAMGAAGAAFAARHRGATARTVDVLNALLPPPRVASSANDEGEAGGLDAGTAID”, the protein production was “failed”.
